Assay [1] deals with T1, rabbit EL-C2 tag (rabbit).
T1 chain: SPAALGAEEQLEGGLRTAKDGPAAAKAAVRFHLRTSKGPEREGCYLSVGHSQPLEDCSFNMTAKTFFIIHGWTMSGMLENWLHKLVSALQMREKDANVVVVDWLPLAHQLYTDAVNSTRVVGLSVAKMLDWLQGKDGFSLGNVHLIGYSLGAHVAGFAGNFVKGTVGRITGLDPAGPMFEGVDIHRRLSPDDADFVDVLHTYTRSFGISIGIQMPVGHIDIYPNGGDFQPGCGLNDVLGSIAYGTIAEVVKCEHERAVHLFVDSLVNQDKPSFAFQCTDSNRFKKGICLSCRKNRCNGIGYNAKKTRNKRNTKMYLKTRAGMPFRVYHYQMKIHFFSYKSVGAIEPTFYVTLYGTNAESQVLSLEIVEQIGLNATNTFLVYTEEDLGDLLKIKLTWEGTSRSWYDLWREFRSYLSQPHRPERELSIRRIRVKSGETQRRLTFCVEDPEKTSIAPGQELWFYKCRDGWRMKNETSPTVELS
The assay can be described thus: cell-based or functional assay.

The target of assay [2] is T2, human EL[331-459]-mouse EL-C2 tag (human/mouse chimera, UniProt Q9WVG5 21-500 (mouse entry)).
T2 chain: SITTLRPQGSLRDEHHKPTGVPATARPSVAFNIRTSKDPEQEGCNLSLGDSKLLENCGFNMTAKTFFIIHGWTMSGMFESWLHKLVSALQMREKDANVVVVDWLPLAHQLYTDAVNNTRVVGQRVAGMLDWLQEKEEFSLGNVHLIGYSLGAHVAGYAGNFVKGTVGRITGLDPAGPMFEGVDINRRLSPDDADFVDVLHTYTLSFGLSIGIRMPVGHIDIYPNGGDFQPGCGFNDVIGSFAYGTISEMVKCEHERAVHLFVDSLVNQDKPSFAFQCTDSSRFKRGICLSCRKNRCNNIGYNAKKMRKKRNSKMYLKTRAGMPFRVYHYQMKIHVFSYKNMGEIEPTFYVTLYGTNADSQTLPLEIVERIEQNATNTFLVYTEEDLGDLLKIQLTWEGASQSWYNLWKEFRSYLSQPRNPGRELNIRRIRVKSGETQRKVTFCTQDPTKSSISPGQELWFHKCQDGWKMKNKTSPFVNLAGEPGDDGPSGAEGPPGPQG
Kind of assay: cell-based or functional assay.

For assay [3], the target named is T3, Baboon EL-C2 tag (baboon, UniProt Q9Y5X9 21-500 (human entry), limits assumed).
T3 chain: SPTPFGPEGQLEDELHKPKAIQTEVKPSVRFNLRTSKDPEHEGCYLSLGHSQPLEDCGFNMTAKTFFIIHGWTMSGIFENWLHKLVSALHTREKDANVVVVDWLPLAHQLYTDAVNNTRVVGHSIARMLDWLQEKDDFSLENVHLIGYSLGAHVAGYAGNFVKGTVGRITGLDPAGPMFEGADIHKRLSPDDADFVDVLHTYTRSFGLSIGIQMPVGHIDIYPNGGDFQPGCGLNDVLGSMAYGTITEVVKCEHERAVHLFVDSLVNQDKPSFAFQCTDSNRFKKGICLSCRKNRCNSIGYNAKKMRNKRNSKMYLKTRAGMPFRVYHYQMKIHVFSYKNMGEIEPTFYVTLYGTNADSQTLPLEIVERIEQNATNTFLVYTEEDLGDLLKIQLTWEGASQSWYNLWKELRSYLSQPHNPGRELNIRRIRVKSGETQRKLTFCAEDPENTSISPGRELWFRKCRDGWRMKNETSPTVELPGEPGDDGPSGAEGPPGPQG
Kind of assay: cell-based or functional assay.

Assay [4] has as its target T4, cynomolgus monkey EL-C2 tag (cynomolgus monkey, UniProt Q9Y5X9 21-500 (human entry), limits assumed).
T4 chain: T3 chain with E12A, E141G
Kind of assay: cell-based or functional assay.

The target of assay [5] is T5, human EL-411-459 fragment (human).
T5 construct: Used as HEK293 lysate
T5 chain: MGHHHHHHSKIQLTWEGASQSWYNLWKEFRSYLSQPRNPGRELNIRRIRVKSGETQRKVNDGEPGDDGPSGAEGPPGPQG
The assay can be described thus: sandwich ELISA with human EL fragment lysate, as Example 10.

Assay [6] addresses T3, Baboon EL-C2 tag. Kind of assay: Biacore SPR; EL captured by anti-C2-tag antibody, antibody as analyte, bivalent fit; column head prints nM, kd/ka gives M. How it is done:
(§1) The binding affinities of anti-EL antibodies were measured using Biacore. Anti-C2-tag antibody was immobilized on a sensor chip CM5 (GE HealthCare) using amine-coupling and baboon EL heparin extract or cynomolgus monkey heparin extract diluted with HBS-P (GE Healthcare) was added and EL were captured on the sensor chip. Then anti-EL antibodies diluted with HBS-P were added and the binding affinities were calculated by bivalent fitting of BIAevaluation software (FIG. 9A-G).

Assay [7] concerns the target T4, cynomolgus monkey EL-C2 tag. Described as above. How it is done:
as §1

Assay [8] has as its target T1, rabbit EL-C2 tag. Kind of assay: ELISA-type titration, A450 against antibody concentration; protocol not described in the text. A general note: In an ELISA, binding on a coated surface is turned into a signal by an enzyme label.
Assay [9] deals with T2, human EL[331-459]-mouse EL-C2 tag. The description is as above.
For assay [10], the target named is T3, Baboon EL-C2 tag. The description is as above.
In assay [11] the target is T4, cynomolgus monkey EL-C2 tag. The description is as above.
The target in assay [12] is T3, Baboon EL-C2 tag. Kind of assay: Biacore SPR; EL heparin extract captured by anti-C2-tag antibody on CM5, antibody as analyte, bivalent fit. How it is done:
as §1
Background: SPR reads the build-up and loss of mass on a sensor chip optically.

In assay [13] the target is T4, cynomolgus monkey EL-C2 tag. Described as above. How it is done: as §1
Assay [14] has the same target. Kind of assay: ELISA-type titration, A450 against antibody concentration; protocol not described in the text.

Residue numbers refer to the chain shown, from its start. Where two headings read alike, the source gives them in different places.

B1: 3B1 antibody (antibody, IgG1, V domains shown)
VH: QVTLKESGPGILQPSQTLSLTCSFSGFSLSTSGVGVGWIRQPSGKGLEWLAHIWWNDNKYYNTALKSRLTISKDTSNNQVFLKIASVDTADTATYFCARSYDGYPFDYWGQGTLVTVSA
VL: DIQMTQSPSSLSASLGGKVTITCKASQDINKYIVWYQHKPGKGPRLLIHHTSTLQPGIPSRFSESGSGRDYSFSISNLEPEDIASYYCLQYDTLLWTFGGGTKLEIR
The EC50 (read off the curve) is the concentration giving half of the maximal effect. The koff is a measure of how fast the partners let go of each other. Usually kon stands for the second-order rate constant of association. As for B1, the “Neutralizing activity_IC50” value is 207 nM in assay [1], 18 nM in assay [2], 6.6 nM in assay [3] and 6.2 nM in assay [4]. Further, the binding result in assay [5] is “binds”. Also, the values for the Kd in assay [6] and in [7] were 1.5 nM and 0.55 nM, respectively. Further, the “EC50 (read off the curve)” value in assay [8] is around 0.02 µg/mL; in assay [9], around 0.03 µg/mL; in assay [10] it was around 0.02 µg/mL; in assay [11], around 0.006 µg/mL. For the same molecule, the koff in assay [12] amounted to 0.00014 s⁻¹; in [13], 9.9e-05 s⁻¹. In addition, the kon in [12] stood at 93000 M⁻¹ s⁻¹; in assay [13] it was 180000 M⁻¹ s⁻¹.

B2: 41H8 antibody (antibody, IgG1, V domains shown)
VH: QVTLKESGPGILQPSQTLSLTCSFSGFSLSTYGMGVGWIRQPSGKGLEWLAHIWWNENKYYNTDLKSRLTISKDTSNNQVFLKIASVDTADTATYYCARIGPGVPFDYWGQGTTITVSS
VL: B1 VL with Y32F, V34A, H50Y, S63N, E64G, S74T, S85T, T93I, L95T, R107K
Regarding B2, the “Neutralizing activity_IC50” value in assay [1] turned out to be 391 nM; in [2], 15 nM; in assay [3] it was 7.2 nM; in [4], 5.9 nM. The binding result in assay [5] is listed as “no binding”. Besides, the “EC50 (read off the curve)” value in [14] is around 0.007 µg/mL. For the same molecule, the Kd in assay [6] is 2.6 nM; in assay [7] it was 0.63 nM. The koff in [12] was 0.00029 s⁻¹; in assay [13] it was 0.0001 s⁻¹. The kon turned out to be 110000 M⁻¹ s⁻¹ in [12] and 160000 M⁻¹ s⁻¹ in assay [13].
